The experiment has as its target Unp-CTD (Saccharomyces cerevisiae, synthetic peptide, N-terminal FAM label, unphosphorylated; consensus RNAPII Rpb1 CTD heptad x3). The experiment in a line: FP; unphosphorylated CTD peptide.

As a reminder, the Kd is the free concentration of one partner at which half of the binding sites on the other are occupied at equilibrium, for simple one-to-one binding. Lower therefore signals higher affinity.

B1: MBP-Asr1 (natural protein)
chain: MEECPICLADDQEGEQFGCLNVCGHKFHLNCIREWHKYSINLKCPICRVESTHLEVGEGQHALSINLKMGFMIKNAIDYVGAETTNERNEDDTGEQDQEIEFLSERLRGTLVMDTIKIIQCSICGDTDVSRLSLYCQDCEAIYHETCLRGLACEVGDRNTWQECTDCRSNALLELRMGAISSQLASYDSRNSMIFAGELRDKHSVKTQQMYEQIRNAKHKIQMHVRRALDRYPLPLLRFKDAYKHVNKQVSRKLYRLSDNKYLPDQYDYDSLARTGVHTELLIYCHDE
For B1, the Kd was found to be 4.06 mM.

The values are drawn from PMC12270679 (2025).
